Results taken from US20040248198A1 (ST JUDE CHILDREN S RESEARCH HOSPITAL, published 2004).
Where no end group is shown, it is not given here.

T1: His-tagged mArfN37 (mouse)
T1 construct: Captured on the SPR chip through a covalently attached Tetra-His antibody; also called His-mArfN37; His-tagged mArf37; not shown: thrombin-cleavable poly-His tag
T1 chain: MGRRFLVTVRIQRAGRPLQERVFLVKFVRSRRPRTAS

B1: 220-234 (peptide)
peptide: SNPDLDAGVSEHSGD
modifications: not fully specified
notes: also called Hdm2 library peptide, residues 220-234
B2: 245-259 (peptide)
peptide: FSVEFEVESLDSEDY
modifications: not fully specified
B3: 235-249 (peptide)
peptide: WLDQDSVSDQFSVEF
modifications: not fully specified
B4: 265-279 (peptide)
peptide: GQELSDEDDEVYQVT
modifications: not fully specified
notes: also called Hdm2 library peptide, residues 265-279
B5: 320-334 (peptide)
peptide: NRCWALRENWLPEDK
modifications: not fully specified
notes: also called Hdm2 library peptide, residues 320-334
B6: 315-329 (peptide)
peptide: LPSHCNRCWALRENW
modifications: not fully specified; cysteine pairing not given here
notes: also called Hdm2 library peptide, residues 315-329
B7: 310-324 (peptide)
peptide: EMNPPLPSHCNRCWA
modifications: not fully specified; cysteine pairing not given here
notes: also called Hdm2 library peptide, residues 310-324
B8: 230-244 (peptide)
peptide: EHSGDWLDQDSVSDQ
modifications: not fully specified
notes: also called Hdm2 library peptide, residues 230-244
B9: 300-314 (peptide)
peptide: ADYWKCTSCNEMNPP
modifications: not fully specified; cysteine pairing not given here
notes: also called Hdm2 library peptide, residues 300-314
B10: 280-294 (peptide)
peptide: VYQAGESDTDSFEED
modifications: not fully specified
notes: also called Hdm2 library peptide, residues 280-294
B11: 330-344 (peptide)
peptide: LPEDKGKDKGEISEK
modifications: not fully specified
notes: also called Hdm2 library peptide, residues 330-344
B12: 260-274 (peptide)
peptide: SLSEEGQELSDEDDE
modifications: not fully specified
notes: also called Hdm2 library peptide, residues 260-274
B13: 325-339 (peptide)
peptide: LRENWLPEDKGKDKG
modifications: not fully specified
notes: also called Hdm2 library peptide, residues 325-339
B14: 215-229 (peptide)
peptide: STGTPSNPDLDAGVS
modifications: not fully specified
notes: also called Hdm2 library peptide, residues 215-229
B15: 335-349 (peptide)
peptide: GKDKGEISEKAKLEN
modifications: not fully specified
B16: 295-309 (peptide)
peptide: PEISLADYWKCTSCN
modifications: not fully specified; cysteine pairing not given here
B17: 210-224 (peptide)
peptide: SSSSESTGTPSNPDL
modifications: not fully specified
notes: also called Hdm2 library peptide, residues 210-224
B18: 285-299 (peptide)
peptide: ESDTDSFEEDPEISL
modifications: not fully specified
notes: also called Hdm2 library peptide, residues 285-299
B19: 255-269 (peptide)
peptide: DSEDYSLSEEGQELS
modifications: not fully specified
B20: 26-40 (peptide)
peptide: HIPRLTGEWAAPGAP
modifications: not fully specified
notes: also called human p14Arf library peptide, residues 26-40
B21: 31-45 (peptide)
peptide: TGEWAAPGAPAAVAL
modifications: not fully specified
notes: also called human p14Arf library peptide, residues 31-45
B22: 51-65 (peptide)
peptide: RSQRLGQQPLPRRPG
modifications: not fully specified
notes: also called human p14Arf library peptide, residues 51-65
B23: 96-110 (peptide)
peptide: RARRCPGGLPGHAGG
modifications: not fully specified
notes: also called human p14Arf library peptide, residues 96-110
B24: 66-80 (peptide)
peptide: HDDGQRPSGGAAAAP
modifications: not fully specified
notes: also called human p14Arf library peptide, residues 66-80
B25: 46-60 (peptide)
peptide: VLMLLRSQRLGQQPL
modifications: not fully specified
notes: also called human p14Arf library peptide, residues 46-60
B26: 91-105 (peptide)
peptide: HSHPTRARRCPGGLP
modifications: not fully specified
notes: also called human p14Arf library peptide, residues 91-105
B27: 71-85 (peptide)
peptide: RPSGGAAAAPRRGAQ
modifications: not fully specified
notes: also called human p14Arf library peptide, residues 71-85
B28: 76-90 (peptide)
peptide: AAAAPRRGAQLRRPR
modifications: not fully specified
notes: also called human p14Arf library peptide, residues 76-90
B29: 116-130 (peptide)
peptide: GAAGRARCLGPSARG
modifications: not fully specified
notes: also called human p14Arf library peptide, residues 116-130
B30: 61-75 (peptide)
peptide: PRRPGHDDGQRPSGG
modifications: not fully specified
notes: also called human p14Arf library peptide, residues 61-75
B31: 101-115 (peptide)
peptide: PGGLPGHAGGAAPGR
modifications: not fully specified
B32: 81-95 (peptide)
peptide: RRGAQLRRPRHSHPT
modifications: not fully specified
notes: also called human p14Arf library peptide, residues 81-95
B33: 111-125 (peptide)
peptide: AAPGRGAAGRARCLG
modifications: not fully specified
notes: also called human p14Arf library peptide, residues 111-125
B34: 21-35 (peptide)
peptide: RVFVVHIPRLTGEWA
modifications: not fully specified
notes: also called human p14Arf library peptide, residues 21-35
B35: 41-55 (peptide)
peptide: AAVALVLMLLRSQRL
modifications: not fully specified
notes: also called human p14Arf library peptide, residues 41-55
B36: 56-70 (peptide)
peptide: GQQPLPRRPGHDDGQ
modifications: not fully specified
notes: also called human p14Arf library peptide, residues 56-70
B37: 106-120 (peptide)
peptide: GHAGGAAPGRGAAGR
modifications: not fully specified
notes: also called human p14Arf library peptide, residues 106-120

Target: T1, His-tagged mArfN37
Assay: SPR (Biacore), His-tagged mArfN37 captured by anti-His antibody, Hdm2 peptide as analyte, reference cell subtracted
Description: (§1) Surface Plasmon Resonance. Binding studies were performed using a Biacore 3000 surface plasmon resonance (SPR) instrument (Biacore, Inc.). A Tetra-His™ Antibody (Qiagen, Inc.; Cat. #34670) was covalently attached to a carboxymethylated gold surface (C-1 chip; Biacore, Inc.). The carboxymethyl groups on the surface were activated with N-ethyl-N-(3-dimethylaminopropyl) carbodiimide (EDC) and N-hydroxysuccinimide (NHS) and the antibody was attached at pH 7.4 in 20 mM sodium phosphate buffer, 150 mM NaCl (PBS). Reactive sites remaining on the surface were blocked by reaction with ethanolamine. The His-tagged ligand was attached to the antibody by injecting a […] solution of the ligand in 10 mM HEPES, 150 mM NaCl, pH 7.4 (HBS-N buffer, Biacore) at a flow rate of 10 μL/Min through the flow cell. A reference cell was prepared similarly except that no His-tagged ligand was added. Binding was measured by flowing the non-His-tagged analyte through the reference and ligand-containing flow cells in sequence. Prior to injection of ligands, the chip surfaces were equilibrated in HBS-N buffer. Changes in the SPR response due to solvent differences and the injection process were monitored by injection of HBS-N buffer alone. Regeneration of the chip surface to remove bound analyte and ligand was accomplished by two 100 μL injections of 10 mM glycine, pH 2.0 through both flow cells. Data reported is-the difference in SPR signal between the flow cell containing analyte and the reference cell. Duplicate injections were made and the SPR response values reported are the average of these two injections.
A similar approach using short synthetic peptides and SPR was used to map the segments of Hdm2 that bind mArfN37 (FIG. 5c). […] The first of these as Arf-binding segment is termed “H1” and the second is termed segment “H2”.
B1: no binding (tested: not given).
B2: binds.
B3: binds.
B4: no binding (tested: not given).
B5: no binding (tested: not given).
B6: no binding (tested: not given).
B7: no binding (tested: not given).
B8: no binding (tested: not given).
B9: no binding (tested: not given).
B10: no binding (tested: not given).
B11: no binding (tested: not given).
B12: no binding (tested: not given).
B13: no binding (tested: not given).
B14: no binding (tested: not given).
B15: no binding (tested: not given).
B16: no binding (tested: not given).
B17: no binding (tested: not given).
B18: no binding (tested: not given).
B19: no binding (tested: not given).

Each binder was assayed against T2, His-tagged Hdm2 210-304 (human, UniProt Q00987 210-304) (assay: SPR (Biacore), His-tagged Hdm2 210-304 captured by anti-His antibody, human Arf peptide as analyte, reference cell subtracted).
T2 construct: not shown: thrombin-cleavable poly-His tag from pET28a
T2 sequence (Q00987 210-304): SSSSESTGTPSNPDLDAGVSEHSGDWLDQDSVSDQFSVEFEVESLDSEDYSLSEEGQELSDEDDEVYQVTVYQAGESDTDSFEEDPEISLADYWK
Description: as §1
Two libraries of peptides 15 amino acids in length were synthesized based on the sequence of exon 1β of mouse p19^Arf and the entire sequence of human p14^Arf. The sequence for the first peptide in each library corresponded to the first 15 amino acids of the protein sequences. […] This approach yielded two libraries of overlapping peptides spanning mouse p19^Arf residues 1-64 and human p14^Arf residues 1-132. The ability of these peptides to bind Hdm2 fragments was determined using the surface plasmon resonance (SPR) technique with a Biacore 3000 instrument.
B20: no binding (tested: not given).
B21: no binding (tested: not given).
B22: no binding (tested: not given).
B23: no binding (tested: not given).
B24: no binding (tested: not given).
B25: no binding (tested: not given).
B26: no binding (tested: not given).
B27: no binding (tested: not given).
B28: no binding (tested: not given).
B29: no binding (tested: not given).
B30: no binding (tested: not given).
B31: no binding (tested: not given).
B32: no binding (tested: not given).
B33: no binding (tested: not given).
B34: no binding (tested: not given).
B35: no binding (tested: not given).
B36: no binding (tested: not given).
B37: no binding (tested: not given).
